In assay [1] the target is T1, Protease domain of human HtrA1 (HuHtrA1_PD), residues D161-K379 (human, UniProt F1N152 168-386 (bovine entry)).
T1 construct: Expressed in E. coli; not shown: thrombin cleavage site between tag and D161
The assay can be described thus: SPR (BIAcore T100), single-cycle kinetics, biotinylated HuHtrA1_PD captured on streptavidin, Fab in solution. As to the method: (§1) Briefly, series S sensor chip CM5 was activated with EDC and NHS reagents according to the supplier's instructions, and streptavidin (Pierce) was coupled to achieve approximately 2000 response units (RU), followed by blocking unreacted groups with 1M ethanolamine.
(§2) The sensorgrams were recorded and evaluated by BIAcore™ T100 Evaluation Software (version 2.0) after subtraction of reference cell signal. Association rates (kₒₙ) and dissociation rates (koff) were calculated using a simple one-to-one Langmuir binding model. The equilibrium dissociation constant (KD) was calculated as the ratio […] (see Table 1 below).
A general note: SPR reads the build-up and loss of mass on a sensor chip optically.

The target in assay [2] is T2, Full length human HtrA1 (HuHtrA1) (Q23-P480), N-terminal His6 tag (human, UniProt Q92743 23-480). The assay can be described thus: cell-based or functional assay.
T2 sequence (Q92743 other isoform, or with tags, fused parts or gaps): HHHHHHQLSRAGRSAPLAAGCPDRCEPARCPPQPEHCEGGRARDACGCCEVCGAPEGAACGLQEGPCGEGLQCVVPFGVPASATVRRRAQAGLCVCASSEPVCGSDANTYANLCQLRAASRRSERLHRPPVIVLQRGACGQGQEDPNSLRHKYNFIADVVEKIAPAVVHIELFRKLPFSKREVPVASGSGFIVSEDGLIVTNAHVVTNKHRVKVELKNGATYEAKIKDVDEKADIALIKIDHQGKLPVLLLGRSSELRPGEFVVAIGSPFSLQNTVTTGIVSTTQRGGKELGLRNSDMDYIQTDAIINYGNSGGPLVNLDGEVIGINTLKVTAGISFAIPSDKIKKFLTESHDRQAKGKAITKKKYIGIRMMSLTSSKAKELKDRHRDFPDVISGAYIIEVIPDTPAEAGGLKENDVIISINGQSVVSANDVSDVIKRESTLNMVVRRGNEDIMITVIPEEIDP
In assay [3] the target is T2, Full length human HtrA1 (HuHtrA1) …. The assay can be described thus: SPR (BIAcore T100), single-cycle kinetics, biotinylated human HtrA1 captured on streptavidin, Fab in solution. From the text:
To determine the binding affinity of HtrA1 antibodies by single cycle kinetics, Surface Plasmon Resonance (SRP) measurement with a BIAcore™ T100 instrument was used. Briefly, a series S sensor chip CM5 was activated with EDC and NHS reagents according to the supplier's instructions, and streptavidin (Pierce) was coupled to achieve approximately 2000 response units (RU), followed by blocking un-reacted groups with 1M ethanolamine.
For kinetics measurements, biotinylated human or murine HtrA1 was first injected at 10 ul/min flow rate to capture approximately 100 RU at 3 different flow cells (FC), except for FC1 (reference), and then 5-fold serial dilutions of anti-HtrA1 Fab in HBS-P buffer (0.01M HEPES pH 7.4, 0.15M NaCl, 0.005% surfactant P20) from low (0.48 nM) to high (300 nM) [5 points] were injected (flow rate: 30 μl/min) one after the other in the same cycle with no regeneration between injections. The sensorgram was recorded and subject to reference and buffer subtraction before evaluation by BIAcore™ T100 Evaluation Software (version 2.0). Association rates (km) and dissociation rates (koff) were calculated using a simple one-to-one Langmuir binding model. The equilibrium dissociation constant (Kd) was calculated as the ratio koff/kₒₙ.

The target in assay [4] is Protease domain of murine HtrA1 (MuHtrA1_PD) (G156-S367) (murine, UniProt Q9R118 156-367). The assay can be described thus: SPR (BIAcore T100), single-cycle kinetics, biotinylated MuHtrA1_PD captured on streptavidin, Fab in solution. The procedure:
as §1, §2

Experimental findings from patent US20190016826A1 (Genentech, published 2019) are described below.

A word on the Kd: it is a measure of binding affinity in units of concentration. Lower therefore signals higher affinity. The term koff denotes the first-order rate constant of dissociation. Higher therefore signals fast dissociation. The term kon denotes the second-order rate constant of association. Read a low kon as slower complex formation.

Chain of Protease domain of murine HtrA1 (MuHtrA1_PD) (G156-S367) (Q9R118 other isoform, or with tags, fused parts or gaps): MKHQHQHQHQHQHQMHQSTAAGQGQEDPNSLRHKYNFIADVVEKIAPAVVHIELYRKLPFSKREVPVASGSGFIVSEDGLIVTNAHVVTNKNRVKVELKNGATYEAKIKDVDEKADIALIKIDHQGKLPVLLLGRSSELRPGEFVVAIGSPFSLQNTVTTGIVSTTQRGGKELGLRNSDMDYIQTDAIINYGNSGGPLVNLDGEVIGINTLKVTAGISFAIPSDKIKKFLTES

B1: Fab94 (anti-HtrA1 antibody YW505.94, Fab format) (Fab, V domains shown)
VH: EVQLVESGGGLVQPGGSLRLSCAASGFNISGYYIHWVRQAPGKGLEWVGWIDPYGGDTNYADSVKGRFTISADTSKNTAYLQMNSLRAEDTAVYYCARGTFLTSWGHYFDYWGQGT
VL: DIQMTQSPSSLSASVGDRVTITCRASQDVSTAVAWYQQKPGKAPKLLIYSASFLYSGVPSRFSGSGSGTDFTLTISSLQPEDFATYYCQQSYTTPPTFGQGTKVEIKR
As for B1, in assay [1], the dissociation constant Kd worked out at 31.1 nM, the off-rate (koff) stood at 0.0109 s⁻¹ and the kon is 350000 M⁻¹ s⁻¹. Also, the “IC50, inhibition of H2-Opt peptide hydrolysis (FRET assay)” value in assay [2] turned out to be 29.1 nM. In assay [3], this molecule showed an equilibrium dissociation constant (Kd) of 31.1 nM, a koff of 0.0109 s⁻¹ and a kon of 351000 M⁻¹ s⁻¹. In assay [4], this molecule displayed a dissociation constant Kd of 28.9 nM, a koff of 0.0129 s⁻¹ and an on-rate constant (kon) of 450000 M⁻¹ s⁻¹.
